In the supplement of paper PMC6379048:

Tests used:
Test in all cases: Kd (EC50 corrected by depletion factor)
P4HB = P4HB (UniProt P07237)
Summary of the method: (§1)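 HEK293-FT lysate (2.5 mg protein/well) was treated with free RNA oligos (0 nM to 30 μM) for 1 h at 4°C, then with the same oligos on NHS-Sepharose beads for 30 min at 4°C. Bound proteins were quantified by label-free LC-MS/MS relative to the control. EC50 came from a four-parameter log-logistic fit, and Kd is EC50 times a protein-dependent depletion factor.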

DDX21 = target: T1, DDX21 (UniProt Q9NR30)
T1 sequence: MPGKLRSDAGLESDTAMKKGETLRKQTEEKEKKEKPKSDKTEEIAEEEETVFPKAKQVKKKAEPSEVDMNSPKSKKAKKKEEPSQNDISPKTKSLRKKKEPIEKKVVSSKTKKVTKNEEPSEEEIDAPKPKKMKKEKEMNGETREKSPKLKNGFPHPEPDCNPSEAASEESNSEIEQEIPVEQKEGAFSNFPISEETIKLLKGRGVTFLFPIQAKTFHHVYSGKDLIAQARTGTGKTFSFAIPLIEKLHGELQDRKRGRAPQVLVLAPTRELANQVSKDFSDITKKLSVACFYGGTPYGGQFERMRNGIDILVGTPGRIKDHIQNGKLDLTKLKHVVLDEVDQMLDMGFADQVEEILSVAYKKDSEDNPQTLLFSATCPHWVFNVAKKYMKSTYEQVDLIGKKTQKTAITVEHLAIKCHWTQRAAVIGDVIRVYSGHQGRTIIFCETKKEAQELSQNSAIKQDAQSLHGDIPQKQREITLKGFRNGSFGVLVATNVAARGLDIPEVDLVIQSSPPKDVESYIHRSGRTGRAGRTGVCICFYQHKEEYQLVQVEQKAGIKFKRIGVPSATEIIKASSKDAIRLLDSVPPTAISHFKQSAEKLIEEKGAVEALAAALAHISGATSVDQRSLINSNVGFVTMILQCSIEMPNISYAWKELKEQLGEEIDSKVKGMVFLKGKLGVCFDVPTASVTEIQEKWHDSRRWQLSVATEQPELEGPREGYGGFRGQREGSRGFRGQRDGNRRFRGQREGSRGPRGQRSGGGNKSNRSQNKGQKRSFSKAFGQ
Summary of the method: as §1

SRSF6 = SRSF6 (UniProt Q13247)
Summary of the method: as §1

ZFP36L1 = target: T2, ZFP36L1 (UniProt Q07352)
T2 sequence: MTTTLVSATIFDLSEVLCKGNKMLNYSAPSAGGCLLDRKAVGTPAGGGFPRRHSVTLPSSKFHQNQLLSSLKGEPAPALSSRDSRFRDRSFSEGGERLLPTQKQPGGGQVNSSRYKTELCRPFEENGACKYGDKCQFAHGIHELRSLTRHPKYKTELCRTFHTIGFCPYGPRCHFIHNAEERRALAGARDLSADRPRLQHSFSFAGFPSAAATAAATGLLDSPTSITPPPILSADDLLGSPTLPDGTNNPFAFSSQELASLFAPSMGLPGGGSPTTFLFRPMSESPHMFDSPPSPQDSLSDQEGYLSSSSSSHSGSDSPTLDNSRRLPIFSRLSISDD
Summary of the method: as §1

ATIC = ATIC (UniProt P31939)
Summary of the method: as §1

DHX37 = target: T3, DHX37 (UniProt Q8IY37)
T3 sequence: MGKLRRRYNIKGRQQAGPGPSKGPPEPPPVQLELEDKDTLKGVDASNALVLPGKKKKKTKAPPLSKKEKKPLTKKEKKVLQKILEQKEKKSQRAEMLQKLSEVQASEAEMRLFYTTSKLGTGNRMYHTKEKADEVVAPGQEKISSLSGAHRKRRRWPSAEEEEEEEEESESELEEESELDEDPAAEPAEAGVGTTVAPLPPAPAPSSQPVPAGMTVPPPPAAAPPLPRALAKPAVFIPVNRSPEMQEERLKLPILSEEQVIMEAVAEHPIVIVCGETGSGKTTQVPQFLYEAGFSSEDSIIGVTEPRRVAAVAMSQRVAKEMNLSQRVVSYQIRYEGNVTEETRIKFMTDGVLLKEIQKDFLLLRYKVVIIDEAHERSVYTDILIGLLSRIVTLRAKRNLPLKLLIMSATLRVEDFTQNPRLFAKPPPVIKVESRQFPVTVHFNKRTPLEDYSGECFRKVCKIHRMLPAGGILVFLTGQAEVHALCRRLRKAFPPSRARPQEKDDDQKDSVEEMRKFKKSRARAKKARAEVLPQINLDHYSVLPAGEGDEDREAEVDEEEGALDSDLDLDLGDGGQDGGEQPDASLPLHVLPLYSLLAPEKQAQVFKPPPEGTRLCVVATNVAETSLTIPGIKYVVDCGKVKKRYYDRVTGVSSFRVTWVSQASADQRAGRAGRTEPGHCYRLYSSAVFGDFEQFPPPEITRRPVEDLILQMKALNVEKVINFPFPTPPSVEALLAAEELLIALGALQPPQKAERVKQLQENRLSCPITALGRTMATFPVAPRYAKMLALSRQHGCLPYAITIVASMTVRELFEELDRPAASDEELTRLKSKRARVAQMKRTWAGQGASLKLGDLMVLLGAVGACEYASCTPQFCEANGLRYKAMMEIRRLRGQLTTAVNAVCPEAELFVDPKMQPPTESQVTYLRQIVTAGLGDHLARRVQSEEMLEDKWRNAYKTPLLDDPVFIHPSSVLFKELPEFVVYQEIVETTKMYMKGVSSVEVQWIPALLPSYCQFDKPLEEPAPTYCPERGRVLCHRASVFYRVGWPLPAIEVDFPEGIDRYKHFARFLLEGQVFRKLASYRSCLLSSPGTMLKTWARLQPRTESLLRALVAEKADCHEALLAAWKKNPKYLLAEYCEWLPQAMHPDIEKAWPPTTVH
Summary of the method: as §1

LSM8 = target: T4, LSM8 (UniProt O95777)
T4 sequence: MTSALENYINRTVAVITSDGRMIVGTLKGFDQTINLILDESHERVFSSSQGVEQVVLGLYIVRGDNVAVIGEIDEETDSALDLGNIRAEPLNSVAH
Summary of the method: as §1

MRPS7 = MRPS7 (UniProt Q9Y2R9)
Summary of the method: as §1

Sequence of P4HB (P07237 whole entry, looked up): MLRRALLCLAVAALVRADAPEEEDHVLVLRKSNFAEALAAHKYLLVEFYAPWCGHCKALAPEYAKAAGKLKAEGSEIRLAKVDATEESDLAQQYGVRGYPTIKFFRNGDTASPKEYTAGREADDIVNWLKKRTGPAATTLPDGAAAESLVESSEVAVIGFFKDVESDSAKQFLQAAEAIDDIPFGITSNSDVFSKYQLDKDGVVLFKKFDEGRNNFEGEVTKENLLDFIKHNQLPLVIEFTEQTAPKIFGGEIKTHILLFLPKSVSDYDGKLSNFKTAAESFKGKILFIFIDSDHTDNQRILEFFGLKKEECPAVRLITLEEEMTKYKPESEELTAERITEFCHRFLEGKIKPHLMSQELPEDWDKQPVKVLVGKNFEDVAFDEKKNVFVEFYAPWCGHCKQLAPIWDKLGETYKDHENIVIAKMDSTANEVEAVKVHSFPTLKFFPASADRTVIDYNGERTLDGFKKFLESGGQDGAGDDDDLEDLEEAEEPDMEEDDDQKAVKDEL
Sequence of SRSF6 (Q13247 whole entry, looked up): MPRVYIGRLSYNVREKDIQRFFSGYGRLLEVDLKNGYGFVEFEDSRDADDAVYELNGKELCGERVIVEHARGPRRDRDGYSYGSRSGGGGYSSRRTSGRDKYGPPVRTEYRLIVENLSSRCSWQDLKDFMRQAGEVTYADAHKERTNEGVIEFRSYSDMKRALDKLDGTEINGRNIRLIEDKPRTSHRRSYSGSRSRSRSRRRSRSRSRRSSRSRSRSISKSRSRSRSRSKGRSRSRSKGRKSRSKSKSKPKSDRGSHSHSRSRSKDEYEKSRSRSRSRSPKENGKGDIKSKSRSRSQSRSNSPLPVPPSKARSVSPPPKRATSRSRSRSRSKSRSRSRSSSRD
Sequence of ATIC (P31939 whole entry, looked up): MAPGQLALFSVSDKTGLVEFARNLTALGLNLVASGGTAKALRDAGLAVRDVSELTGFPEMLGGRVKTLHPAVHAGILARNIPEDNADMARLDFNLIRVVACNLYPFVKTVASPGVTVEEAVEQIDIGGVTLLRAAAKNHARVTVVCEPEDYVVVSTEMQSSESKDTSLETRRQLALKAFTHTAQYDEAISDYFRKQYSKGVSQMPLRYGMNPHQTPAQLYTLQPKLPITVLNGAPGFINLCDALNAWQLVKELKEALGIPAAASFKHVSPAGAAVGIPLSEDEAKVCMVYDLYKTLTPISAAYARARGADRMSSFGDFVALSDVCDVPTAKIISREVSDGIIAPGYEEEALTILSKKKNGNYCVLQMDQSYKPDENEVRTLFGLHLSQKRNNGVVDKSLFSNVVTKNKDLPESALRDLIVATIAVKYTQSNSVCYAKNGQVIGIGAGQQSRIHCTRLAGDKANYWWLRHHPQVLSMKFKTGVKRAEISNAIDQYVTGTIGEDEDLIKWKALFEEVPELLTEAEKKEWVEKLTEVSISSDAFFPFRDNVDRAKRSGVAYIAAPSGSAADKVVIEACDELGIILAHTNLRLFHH

AAUAAA
Kd (P4HB): 24.8 nM

CUGUCCU
Kd (DDX21): 44.3 nM
Kd (SRSF6): 287 nM

UAUUUAU
Kd (ZFP36L1): 24.4 nM
Kd (ATIC): 523 nM
Kd (DHX37): 3370 nM
Kd (LSM8): 2230 nM
Kd (MRPS7): 29.4 nM
